# From patent EP4810052A2 (Gubra A/S, dated 2026)
# Read-outs that look alike come from different tables or passages of the source. Non-standard residues stand in square brackets, D forms with d. No end group written: not given here. NMeI = CC[C@H](C)[C@H](NC)C(=O)O; Nle = CCCC[C@H](N)C(=O)O; lip = not defined here; Aib = CC(C)(N)C(=O)O
# T1: human corticotropin-releasing hormone receptor 1 (human, UniProt P34998 24-415)
# T1 sequence (looked up): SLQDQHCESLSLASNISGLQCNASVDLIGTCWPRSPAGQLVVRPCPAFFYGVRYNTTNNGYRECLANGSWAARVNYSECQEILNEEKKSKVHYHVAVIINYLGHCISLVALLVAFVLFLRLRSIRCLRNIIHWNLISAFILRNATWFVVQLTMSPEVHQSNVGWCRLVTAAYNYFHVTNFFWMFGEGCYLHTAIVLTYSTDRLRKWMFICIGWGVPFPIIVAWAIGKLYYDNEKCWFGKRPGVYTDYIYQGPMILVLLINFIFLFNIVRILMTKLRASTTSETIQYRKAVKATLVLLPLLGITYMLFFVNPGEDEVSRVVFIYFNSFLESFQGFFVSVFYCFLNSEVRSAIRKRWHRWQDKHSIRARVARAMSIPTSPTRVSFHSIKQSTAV
# What was measured:
# Experiment in all cases: cell-based or functional assay
# [1] = target: T1, human corticotropin-releasing hormone …
# [2] = target: T1, human corticotropin-releasing hormone …; remark: listed apart in the source
# [3] = target: T1, human corticotropin-releasing hormone …; remark: listed apart in the source
Binder,"hCRHR1 EC50 (nM); HTRF cAMP assay, CHO-K1 cells stably expressing hCRHR1 [1]","hCRHR1 EC50 (nM); HTRF cAMP assay, CHO-K1 cells stably expressing hCRHR1 [3]",further results
[NMeI]VLSLDVPIGLLQILLEQEKQEKEKQQAK(lip)TNAQILAQV-NH2 (not fully specified; reading uncertain) [SEQ ID NO: 9 (prior art peptide)],510 nM,–,–
Ac-IVLSLDVPIGLLQILLEQARARAAREQAK(lip)TNAEILAEV-NH2 (not fully specified; reading uncertain) [SEQ ID NO: 8],560 nM,–,–
IVLSLDVPIGLLQILLEQARARAAREQAK(lip)TNARILARV-NH2 (not fully specified; reading uncertain) [SEQ ID NO: 2 (lipidated version of native UCN2)],> 5000 nM,–,–
[NMeI]VLSLDVPIGLLQILLEQARARAAREQAKTNAEILAEV-NH2 (not fully specified (residue 29); also: lipid and spacer on Lys29 not given here) [SEQ ID NO: 5],> 5000 nM,–,–
[NMeI]VLSLDVPIGLLQILLEQARARAAREQAK(lip)ENAEILAEV-NH2 (reading uncertain) [SEQ ID NO: 18],–,–,"hCRHR1 EC50 (nM); HTRF cAMP assay, CHO-K1 cells stably expressing hCRHR1 [2]: > 5000 nM"
K(lip)IVLSLDVPIGLLQILLEQARARAAREQATTNAEILAEV-NH2 (not fully specified; reading uncertain) [SEQ ID NO: 11 (prior art peptide)],670 nM,–,–
[NMeI]VLSLDVPIGLLQILLEQARARAAREQAK[Aib]NAEILAEV-NH2 (not fully specified (residue 29); also: lipid and spacer on Lys29 not given here) [SEQ ID NO: 20],–,–,"hCRHR1 EC50 (nM); HTRF cAMP assay, CHO-K1 cells stably expressing hCRHR1 [2]: > 5000 nM"
IVLSLDVPIGLLQILLEQARARAAREQAK(lip)TNVEILAEV-NH2 (not fully specified; reading uncertain) [SEQ ID NO: 14],–,–,"hCRHR1 EC50 (nM); HTRF cAMP assay, CHO-K1 cells stably expressing hCRHR1 [2]: > 5000 nM"
PVLSLDVPIGLLQILLEQARARAAREQAK(lip)TNAEILAEV-NH2 (not fully specified; reading uncertain) [SEQ ID NO: 7],> 5000 nM,–,–
[NMeI]VTSLDVPIGLLQILLEQEKQEKEKQQAK(lip)TNAEILAQV-NH2 (reading uncertain) [SEQ ID NO: 10 (prior art peptide)],68 nM,–,–
IVLSLDVPIGLLQILLEQARARAAREQATK(lip)NAEILAEV-NH2 (not fully specified; reading uncertain) [SEQ ID NO: 4],> 5000 nM,–,–
IVLSLDVPIGLLQILLEQARARAAREQAK(lip)ENAEILAEV-NH2 (not fully specified; reading uncertain) [SEQ ID NO: 17],–,–,"hCRHR1 EC50 (nM); HTRF cAMP assay, CHO-K1 cells stably expressing hCRHR1 [2]: > 5000 nM"
IVLSLDVPIGLLQILLEQARARAAREQAK(lip)TN[Aib]EILAEV-NH2 (reading uncertain) [SEQ ID NO: 15],–,–,"hCRHR1 EC50 (nM); HTRF cAMP assay, CHO-K1 cells stably expressing hCRHR1 [2]: > 5000 nM"
IVLSLDVPIGLLQILLEQARARAAREQAK[Aib]NAEILAEV-NH2 (not fully specified (residue 29); also: lipid and spacer on Lys29 not given here) [SEQ ID NO: 19],–,–,"hCRHR1 EC50 (nM); HTRF cAMP assay, CHO-K1 cells stably expressing hCRHR1 [2]: > 5000 nM"
IVLSLDVPIGLLQILLEQARARAAREQAK(lip)TNIEILAEV-NH2 (not fully specified; reading uncertain) [SEQ ID NO: 13],–,–,"hCRHR1 EC50 (nM); HTRF cAMP assay, CHO-K1 cells stably expressing hCRHR1 [2]: > 5000 nM"
IVLSLDVPIGLLQILLEQARARAAREQAK(lip)TNLEILAEV-NH2 (not fully specified; reading uncertain) [SEQ ID NO: 12],–,–,"hCRHR1 EC50 (nM); HTRF cAMP assay, CHO-K1 cells stably expressing hCRHR1 [2]: > 5000 nM"

# More lines, main results first:
"hCRHR1 EC50 (nM); HTRF cAMP assay, CHO-K1 cells stably expressing hCRHR1 [1]","hCRHR1 EC50 (nM); HTRF cAMP assay, CHO-K1 cells stably expressing hCRHR1 [3]",Binder,further results
–,> 5000 nM,IVLSLDVPIGLLQILLSQARARAAREQAK(lip)TNAEI[Nle]AEV-NH2 (not fully specified; reading uncertain) [SEQ ID NO: 83],–
–,> 5000 nM,IVLSLDVPIGLLQILLSQARARAAREQAK(lip)TNAEI[Nle]AEI-NH2 (not fully specified; reading uncertain) [SEQ ID NO: 89],–
110 nM,–,lip-IVLSLDVPIGLLQILLEQARARAAREQATTNAEILAEV-NH2 (not fully specified; reading uncertain) [SEQ ID NO: 260],–
–,> 5000 nM,IVLSLDVPIGLLQILLEQARARAAREQAKTNAEI[Nle]AEI-NH2 (not fully specified (residue 29); also: lipid and spacer on Lys29 not given here) [SEQ ID NO: 69],–
–,> 5000 nM,[NMeI]VLSLDVPIGLLQILLSQARARAAREQAK(lip)[Aib]NAEI[Nle]AEV-NH2 (reading uncertain) [SEQ ID NO: 132],–
–,> 5000 nM,IVLSLDVPIGLLQILLEQARARAAREQAK[Aib]NAEI[Nle]AEI-NH2 (not fully specified (residue 29); also: lipid and spacer on Lys29 not given here) [SEQ ID NO: 236],–
–,> 5000 nM,IVLSLDVPIGLLQILLSQARARAAREQAKTN[Aib]EI[Nle]AEV-NH2 (not fully specified (residue 29); also: lipid and spacer on Lys29 not given here) [SEQ ID NO: 234],–
> 5000 nM,–,IVLSLDVPIGLK(lip)QILLEQARARAAREQATTNAEILAEV-NH2 (not fully specified; reading uncertain) [SEQ ID NO: 261],–
–,> 5000 nM,[NMeI]VLSLDVPIGLLQILLSQARARAAREQAK(lip)ENAEI[Nle]AEV-NH2 (reading uncertain) [SEQ ID NO: 101],–
–,56 nM,IVLSLDVPIGLLQILLEQARARAAREQAKTNAEI[Nle]AEV-NH2 (not fully specified (residue 29); also: lipid and spacer on Lys29 not given here) [SEQ ID NO: 45],–
–,> 5000 nM,IVLSLDVPIGLLQILLSQARARAAREQAK[Aib]NAEI[Nle]AEV-NH2 (not fully specified (residue 29); also: lipid and spacer on Lys29 not given here) [SEQ ID NO: 237],–
–,> 5000 nM,IVLSLDVPIGLLQILLSQARARAAREQAKENAEI[Nle]AEV-NH2 (not fully specified (residue 29); also: lipid and spacer on Lys29 not given here) [SEQ ID NO: 239],–
